First the molecules themselves.
B1: ADI-41303 (antibody, V domains shown)
VH: QVQLVQSGGGLVRPGGSLRVSCAASGFIFNNYALTWVRQAPGKGLEWVSAISGSGSSTYYADSVKGRFTISRENSNNRLYLQLSGLRAEDTAVYFCARVRGLVWFEGRIDPYPNVFDYWGQGTLVTVSS
VL: DIVLTQSPGTLSLSPGERATLSCRASQSVSNDYLAWYQQKPGQAPRLLIYDASSRAIGIPDRFSGSGSGTDFTLIISRLEPEDFAVYYCHHPGKFGQGTKVEIK
B2: ADI-41299 (antibody, V domains shown)
VH: EVQLVESGGGLVHPGRSLRLSCGASGFTFRSFAMHWVRQAPGKGLEWVAVISYDGSDEYYADSVKGRFTISRDNSRNTLFLQMNRLRPEDTAIYYCARAYCSTSNCPVLDYWGQGTLVTVSS
VL: QSVLIQPASVSGSPGQSITISCTGTSSDVGGYSLVSWYQQHPGKAPKLIIFEGNKRPAGVSDRFSGSKYGDTASLTISGLQAEDEADYYCCSYAGGHSVFGGGTKVTVL
B3: ADI-41323 (antibody, V domains shown)
VH: EVQLLESGGGVVRPGGSLRLSCAASGFTFDDYAMGWVRQAPGKGLEWVSGITWNAGSTAYAGSVKGRFTISRDNAKNSLFLQMNSLRAEDTAFYLCARHVDSSGPVARHFDYWGQGTLVTVSS
VL: NFMLTQPHSVSESPGKTVTISCTRSSGSIARNYVQWYQQRPGSAPTIVIYEDNQRPSGVPDRFSGSIDSSSNSASLTISGLKTEDEADYYCQSYDPSNVVFGGGTKLTVL
B4: ADI-41311 (antibody, V domains shown)
VH: QVTLKQSGPALVKPTQTLTLTCTFSGFSLSTKRMGVSWIRQPPGKALEWLARIDWDDDKYYSTSLRTRLTISKDTSKNQVVLTMTDMDPVDTATYYCARIQPYTSGGYYSYYFDYWGQGTLVTVSS
VL: DIQVTQSPSSLSASIGDRVTITCRASQTIASYLNWYQQKPGKAPKLLIYIASSLQSGVPSRFSGSGSGTDFTLTISTLQPEDFATYYCQQSYGTPWTFGQGTKVEIK
B5: ADI-41307 (antibody, V domains shown)
VH: QVQLVESGGGLVKPGGSLRLSCAASGFPLSPYALNWVRQAPGKGLEWVSSITSSSAYIYYADSVKGRFTVSRDNPTNSLYLQMNSLRAEDTAVYYCARTIPQHYYDNNGDYYNYGMDVWGQGTTVTVSS
VL: DIVLTQSPATLSVSPGQRITLSCRASQTVRSNLAWYQQKPGQPPRLLIYGASTRATGVPARFTGSGSGTEFTLTITSLQSDDFAVYYCHQYNDRPLTFGPGTKVEIK
B6: ADI-41313 (antibody, V domains shown)
VH: EVQLVESGAEVKKPGASVKVSCKASGYTFNNYDISWVRQAPGQGLEWMGWISTYNGNTNYAQKFQGRATMTTDTSTTTAYMELRSLRSDDSAIYYCARVYCGGDCHNPFFLYFDLWGRGTLVTVSS
VL: SYVLTQPLSVSVALGQTARITCGGNNIGSKSVHWYQQKPGQAPLLVIYRDNNRPSGIPERFSGSTSGNTATLTISRAQAGDEADYSCQVWDNSDWVFGGGTKLTVL
B7: ADI-41324 (antibody, V domains shown)
VH: EVQLVESGGGLVQPGGSLRLSCAASGFTVSNNYMRWVRQAPGKGLEWVSVIYSSGSTDYADSVKGRFTISRDNSKNTLYLQMNSLRAEDTAVYYCARERTLFYYDSSGFFDYWGQGTLVTVSS
VL: ETTLTQSPGTLSLSPGERATLSCRASQSVDSSYLAWYQQKPGQAPRLLIYGASNRATGIPDRFSGSGSGTDFTLTISRLEPEDFAVYYCQQYGRSLTFGGGTKLEIK
B8: ADI-41292 (antibody, V domains shown)
VH: EVQLLESGGGVVQPGRSLRLSCAASGFSFSSYGIHWVRQAPGKGLECVALMSYDGSEKYYADSVKGRFTISRDNSKNTLYLHMNSLRREDTAVYYCAKGSHLRWSHLDYYFHLWGRGTLVTVSS
VL: DIVMTQSPSTLSASVGDRVTITCRASQSLSTWLAWYQQKPGKAPKLLISDASNLESGVPSRFSGRGSGTEFTLTISGLQPDDFATYYCQQERTFGQGTKVDIK
B9: ADI-41297 (antibody, V domains shown)
VH: QVQLVQSGAEVKKPGSSVKVSCKASGGTFSTDAISWVRQAPGQGLEWMGGIIPLFGTANYAQKFQGRVTITADESTSTAYMELNSLRSVDTAVYYCGRTGAFDGEVVVRPHLDLWGQGTLVTVSS
VL: QPVLTQPASVSGSPGQSITISCTGTSSDVGGYDYVSWYQHHPGKAPKLMIYEVSNRPSGVSNRFSGSKSGNTASLTISGLQADDEAAYYCSSYTRSNTLLFGGGTKLTVL
B10: ADI-41314 (antibody, V domains shown)
VH: QVQLVQSGAEVKKPGSSVKVSCKAFGGIFSSYAISWVRQAPGQGLEWMGGIIPIFGTTKYAQKFQGRVTITADKSTSTVYMEVSSLRFEESAVYFCARAYCSGGTWYGGADYWGQGTLVTVSS
VL: QSVLTQPPSVSVSPGQTARITCSGDVLPKQYAYWYQQKPGQAPLLVMYKDTERPSGIPERFSGSSSVTAVTLTISGVQAEDEADYYCQSADSTQELFGGGTKLTVL
B11: ADI-41318 (antibody, V domains shown)
VH: EVQLLESGAEVKKPGSSVRVSCKAFGGTFSSYAFSWVRQAPGQGLEWMGGITPMFGTENYAPNFQGRVTITADKLTTTVYMELSRLRSEDSAVYYCAREGGRLGTTMGAFDMWGQGTMVTVSS
VL: DIRLTQSPSSLSASVGDRVTITCRASHGISSALAWYQQRPGRVPQVLIFHASTLESGVPSRFSGSGSGTDFTLTISSLQPEDFATYYCQQFNSYPYTFGQGTKVEIK
B12: ADI-41315 (antibody, V domains shown)
VH: EVQLLESGPGLVKPSETLSLTCAVSGGSISNYYWSWIRQPPGKGLEWIAYISYSGTTNYNPSLESRVTISVDTSKNQFSLKLNSVTAADTAVYYCARHEFLVLPDVWGQGTLVTVSS
VL: ETTLTQSPGTLSLSPGERATLSCRASQSVSSTFLAWYQQKPGQAPRLLIYAASSRATGIPDRFSGSGSGTDFTLIISRLEPEDFAVYYCQQYRSSPFSFGPGTKVEIK
B13: ADI-41341 (antibody, V domains shown)
VH: QVQLVQSGAEVKKPGSSVKVSCKASGGTFSSYATHWVRQAPGQGLEWMGGIIPIFGRATYAQKFQGRVTISADESTSTAYMELSSLRSEDTAVYYCARGRDDRSGDHIAFLYHYGMDVWGQGSTVTVSS
VL: QSVLTQPPSVSAAPGQKVSISCSGSSSNIGINHASWYQHLPGTAPKLLIYDNNKRPSGIPDRFSGSKSGTSATLGISGLQTGDEAAYYCGTWDTGLSAVVFGGGTKLTVL
B14: ADI-41306 (antibody, V domains shown)
VH: QVQLVESGPRLVKPSQTLSLTCTVSGGSIYRGDYDWNWIRQPPGKGLEWIGYISYTGNTHYNSSLKSRLSISADTSGTHFSLKLSSVTAADTAIYYCARDVGYGGNAAHYYYYAMDVWGQGTTVTVSS
VL: ETTLTQSPATLSLSPGERATLSCRASQSVGSSLAWYQQKVGQAPRLLIYDASSRVTGIPARFSGSGSGTDFTLTISSLEPGDFAVYYCQQRSNSLTFGGGTKVEIK
B15: ADI-41308 (antibody, V domains shown)
VH: EVQLVESGPGLVKPSQTLSLTCAISGDSVSSNSAAWNWIRQSPSRGLERMGRTYYRSKWYDDYAVSVKSRIIINPDTSKNQFSLQLNSVTPEDTAVYYCARGISTFGGVIYALEIWGQGTMVTVSS
VL: SYVLTQPASVSGSPGQSITISCTGLTSDVGGYNFVSWYQQHPGKAPKLIIYDVSHRPSGVSNRFSGSESGNTASLTISGLQAEDEAHYYCSSYTRTSIVVFGGGTKLTVL
B16: ADI-41304 (antibody, V domains shown)
VH: EVQLVESGPGLVKPSQTLSLTCTVSGGSIRSHDYYWSWIRQPPGKGLEWIGYSYYSGSTYYNPSLKSRVIISLDTSKNQFSLNLTSVTAADTAMYYCARDRPHTSSWIPGWFDPWGQGTLVTVSS
VL: SYELTQPPSASGTPGQRVTISCSGSSSNIGSNTVSWYQQFPGKAPKLLIYSNNERPSGGPDRFSGSKSGTSASLAIGGLQSEDEANYYCAAWDDSLYAVVFGGGTKLTVL
B17: ADI-41316 (antibody, V domains shown)
VH: QVQLVQSGGGVVQPGRSLRLSCAASGFTFNNYGMHWVRQAPGKGLEWVAVLSFDGINKYYADSARGRFTISRDNSKNTLYLQMNSLRAEDTALYYCAKDRQEYSSGWTHDACDIWGQGTMVTVSS
VL: EIVMTQSPATLSVSPGERATLSCRASQNVNNNLAWYQQNPGQAPRLLIFGASTRATGIPARFSGSGSGTEFTLTISSLQSEDFAVYYCQQYNNWPRTFGQGTKLEIK
B18: ADI-41309 (antibody, V domains shown)
VH: EVQLLESGPGLVKPSQTLSLTCTVSGGSISSGDYYWSWVRQPPGKGLEWIGNIYHSGSTYYKPSLKSRVSISLDTSKNQFSLKLSSVTAADTAIYYCARDGGENYVWGTFRFLDVWGQGTTVTVSS
VL: DIRLTQSPGTLSLSPGERATLSCRASQSVSSSYLAWYQQKPGQAPRLLIYGVSSRATGIPDRFSGSGSGTDFTLTINRLEPEDFALYHCQQYGSSPHTFGQGTKVEIK
B19: ADI-41293 (antibody, V domains shown)
VH: QVQLQQSGPGLAKPSQTLSLTCTVSGGPISGVDYYWSWIRQPPGKGLEWIGYIYYSGSTYYNPSLKSRVTISVDTSKKQFSLKMSSVTAADTAVYYCARDVGATPYYYYGMDVWGQGTTVTVSS
VL: DIVLTQSPDTLSLSPGERATLSCRASQSVRSNYLAWYQHKPGQAPRLLIYGASSRVAGIPDRFSGSGSGTDFTLTISRLEPEDFAVYYCQQYGSSPPSVTFGGGTKVEIK

From patent US20260258115A1 come the findings set out here.

For the first assay, the target named is RSV prefusion F (preF, DS-Cav1) (Respiratory syncytial virus). Briefly: BLI, IgG on sensor, 100 nM antigen.
Molecule B1 had a Kd of 2.96 nM.
B2 registered a Kd of 3.48 nM.
The same measure, in the same setting: the same measure for B3: 1.95 nM; for B4: 0.754 nM; for B5: 2.99 nM.
As to B6, the Kd came to 0.455 nM.
B7 gave a Kd of 2.47 nM.
On the same count and under the same terms, with B8 the figure was 883 nM; with B9, 3.91 nM.
On the same count and under the same terms, with B10 the figure was 2.41 nM; with B11, 426 nM.
Same read-out and setting: the same measure for B12: 2.93 nM; for B13: 2.83 nM.
Consider B14, for which the Kd stood at 0.462 nM.
Same read-out and setting: with B15 the figure was 4 nM.
Same read-out and setting: with B16 the figure was 0.338 nM; with B17, 3.74 nM; with B18, 4.34 nM.
The same measure, in the same setting: with B19 the figure was 0.496 nM.

Another assay concerns the target RSV postfusion F (postF, F deltaFP) (Respiratory syncytial virus). Nature of the assay: BLI, IgG on sensor, 100 nM antigen.
For B1, the Kd came out at 0.944 nM.
Same read-out and setting: with B2 the figure was 2.25 nM; with B3, 0.331 nM.
On the same count and under the same terms, with B4 the figure was 0.524 nM.
In turn, B5 gave a Kd of 0.83 nM.
The same measure, in the same setting: the same measure for B6: 0.342 nM.
On the same count and under the same terms, with B7 the figure was 0.426 nM; with B8, 195 nM.
Still for that read-out and setting: the same measure for B9: 0.628 nM; for B10: 0.414 nM.
B11 yielded a Kd of 35.4 nM.
The same measure, in the same setting: with B12 the figure was 1.03 nM.
Still for that read-out and setting: with B13 the figure was 1.97 nM; with B14, 0.454 nM; with B15, 0.519 nM.
Same read-out and setting: with B16 the figure was 0.33 nM; with B17, 1.05 nM; with B18, 1.36 nM.
Molecule B19 gave a Kd of 0.411 nM.
